T1: Gid1 (S. cerevisiae, UniProt P53076)
T1 sequence: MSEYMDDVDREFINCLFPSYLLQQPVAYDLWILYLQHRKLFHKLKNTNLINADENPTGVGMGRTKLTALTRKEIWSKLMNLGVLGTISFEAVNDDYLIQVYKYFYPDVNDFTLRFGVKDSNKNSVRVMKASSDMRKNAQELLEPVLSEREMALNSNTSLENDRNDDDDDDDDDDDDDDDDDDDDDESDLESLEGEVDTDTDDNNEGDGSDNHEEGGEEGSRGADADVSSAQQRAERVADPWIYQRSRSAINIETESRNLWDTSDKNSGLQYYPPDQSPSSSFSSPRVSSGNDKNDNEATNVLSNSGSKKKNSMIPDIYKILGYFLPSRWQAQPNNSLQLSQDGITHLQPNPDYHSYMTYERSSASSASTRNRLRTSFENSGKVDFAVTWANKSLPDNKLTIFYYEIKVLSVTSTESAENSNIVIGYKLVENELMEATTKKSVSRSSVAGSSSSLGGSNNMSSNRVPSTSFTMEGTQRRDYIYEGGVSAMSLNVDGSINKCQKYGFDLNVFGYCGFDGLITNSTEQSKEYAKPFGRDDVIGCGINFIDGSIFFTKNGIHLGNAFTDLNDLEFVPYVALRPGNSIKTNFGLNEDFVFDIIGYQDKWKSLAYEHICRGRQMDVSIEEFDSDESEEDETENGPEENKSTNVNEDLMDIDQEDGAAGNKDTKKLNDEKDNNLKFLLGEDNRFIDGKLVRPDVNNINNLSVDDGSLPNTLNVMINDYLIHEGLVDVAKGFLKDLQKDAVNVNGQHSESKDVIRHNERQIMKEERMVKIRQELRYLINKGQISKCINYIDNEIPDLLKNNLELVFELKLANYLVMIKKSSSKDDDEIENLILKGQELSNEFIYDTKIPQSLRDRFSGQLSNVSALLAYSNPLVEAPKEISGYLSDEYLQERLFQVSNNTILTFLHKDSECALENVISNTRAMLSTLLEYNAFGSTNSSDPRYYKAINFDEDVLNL

B1: Gid8 with a C-terminal twin-Strep tag (natural protein)
chain: MTISTLSNETTKSGSCSGQGKNGGKDFTYGKKCFTKEEWKEQVAKYSAMGELYANKTIHYPLKIQPNSSGGSQDEGFATIQTTPIEPTLPRLLLNYFVSMAYEDSSIRMAKELGFIRNNKDIAVFNDLYKIKERFHIKHLIKLGRINEAMEEINSIFGLEVLEETFNATGSYTGRTDRQQQQQQQQFDIDGDLHFKLLLLNLIEMIRSHHQQENITKDSNDFILNLIQYSQNKLAIKASSSVKKMQELELAMTLLLFPLSDSADSGSIKLPKSLQNLYSISLRSKIADLVNEKLLKFIHPRIQFEISNNNSKFPDLLNSDKKIITQNFTVYNNNLVNGSNGTKITHISSDQPINEKMSSNEVTAAANSVWLNQRDGNVGTGSAATTFHNLENKNYWNQTSELLSSSNGKEKGLEFNNYYSSEFPYEPRLTQIMKLWCWCENQLHHNQIGVPRVEN
B2: Gid7 (natural protein)
chain: MSHTNKIAYVLNNDTEETASPSSVGCFDKKQLTKLLIHTLKELGYDSAANQLLLESGGYQNESNHIQTFFKLIKTGQFHLINWQIVCSLPLAHSSPLRSEWLQRLLIPTPTPATTSLFDHMLLQLQYLQQLMSSVNSSTCSDAEIATLRNYVEIMILVNRQIFLEFFHPVTNSASHKGPHTALPVLYLRKILKNFIEIWDSLLVSNDQFLNEENIFNPETTLRELSTYLTNPKLTAQLNLERDHLIDAISKYIDPNELVPKGRLLHLLKQAIKYQQSQDIFNIIDPDDDASFSSPPHRINLLQDNFSHDLTVTFQEWKTIQDTTDEIWFLTFSPNGKYLASATSESSRGYFITVYDVEQDFKIYKTCVSLSQSVLYLMFSPDSRYLVACPFSEDVTIYDMNATSLPDASATDSFLLYPSTRLSPMDSFKLDTTTYPDDTESSASSSSRPANANSNQSRVWCCDAFHTAERAGWMVVGSPDREAIVHSLTTKESLFSLKGRTCIALGHDENISGRKSIDPAKVLYKPTSSNGNWQYVEDDETFPRVHDVKISYDDKYVLLMTHQGVIDVYDFSGFPSKEELSKQTVDPKNFLIPRIARLDVGKNMTCISLPLNTTHQGFHRQQISESQHLVLVSLQDNELQMWDYKENILIQKYFGQKQQHFIIRSCFAYGNKLVMSGSEDGKIYIWDRIRGNLVSVLSGHSTVMSNSTKPMGKNCNVVASNPADKEMFASGGDDGKIKIWKISRN

Key:
Experiment in all cases: cryo-EM structure
[1] = target: B2
[2] = target: Gid7 (S. cerevisiae) (UniProt P25569)
[3] = target: GID^SR4 (S. cerevisiae, UniProt P53076;P40208;P40547;P38263;Q12508;P40492)
GID^SR4, sequence (P40547 whole entry, chain 3 of 4): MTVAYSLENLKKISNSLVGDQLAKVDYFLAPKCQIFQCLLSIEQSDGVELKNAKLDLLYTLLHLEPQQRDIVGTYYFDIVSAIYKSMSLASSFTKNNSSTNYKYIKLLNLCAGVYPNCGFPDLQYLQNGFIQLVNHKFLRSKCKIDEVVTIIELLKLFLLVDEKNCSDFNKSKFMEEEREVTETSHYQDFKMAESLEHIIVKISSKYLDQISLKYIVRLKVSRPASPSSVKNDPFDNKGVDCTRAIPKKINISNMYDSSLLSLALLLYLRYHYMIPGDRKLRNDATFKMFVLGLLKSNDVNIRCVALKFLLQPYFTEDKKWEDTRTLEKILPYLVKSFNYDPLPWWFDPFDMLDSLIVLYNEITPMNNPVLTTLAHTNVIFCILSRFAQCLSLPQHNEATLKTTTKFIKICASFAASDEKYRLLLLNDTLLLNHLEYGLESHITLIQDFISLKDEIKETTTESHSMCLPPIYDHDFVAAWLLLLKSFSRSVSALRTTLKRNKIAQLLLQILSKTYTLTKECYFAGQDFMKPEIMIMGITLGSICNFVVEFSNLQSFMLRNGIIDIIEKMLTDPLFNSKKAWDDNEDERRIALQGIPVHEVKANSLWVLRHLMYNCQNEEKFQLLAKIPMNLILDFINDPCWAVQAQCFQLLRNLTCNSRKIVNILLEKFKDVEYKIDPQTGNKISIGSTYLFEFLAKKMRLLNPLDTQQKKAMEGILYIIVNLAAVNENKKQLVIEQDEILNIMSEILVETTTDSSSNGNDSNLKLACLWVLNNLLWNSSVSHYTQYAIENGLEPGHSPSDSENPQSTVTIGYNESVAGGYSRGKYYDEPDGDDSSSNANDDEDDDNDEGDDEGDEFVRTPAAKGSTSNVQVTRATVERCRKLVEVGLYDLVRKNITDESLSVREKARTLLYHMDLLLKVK
GID^SR4, sequence (P38263 117-362, chain 4 of 4): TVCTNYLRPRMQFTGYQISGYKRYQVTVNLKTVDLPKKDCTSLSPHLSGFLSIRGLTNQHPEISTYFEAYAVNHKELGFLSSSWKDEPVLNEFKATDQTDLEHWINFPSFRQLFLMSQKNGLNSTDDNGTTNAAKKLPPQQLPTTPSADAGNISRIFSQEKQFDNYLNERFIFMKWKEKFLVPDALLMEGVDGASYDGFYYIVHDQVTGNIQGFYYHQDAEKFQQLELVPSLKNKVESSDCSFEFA
GID^SR4, sequence (Q12508 whole entry, chain 5 of 4): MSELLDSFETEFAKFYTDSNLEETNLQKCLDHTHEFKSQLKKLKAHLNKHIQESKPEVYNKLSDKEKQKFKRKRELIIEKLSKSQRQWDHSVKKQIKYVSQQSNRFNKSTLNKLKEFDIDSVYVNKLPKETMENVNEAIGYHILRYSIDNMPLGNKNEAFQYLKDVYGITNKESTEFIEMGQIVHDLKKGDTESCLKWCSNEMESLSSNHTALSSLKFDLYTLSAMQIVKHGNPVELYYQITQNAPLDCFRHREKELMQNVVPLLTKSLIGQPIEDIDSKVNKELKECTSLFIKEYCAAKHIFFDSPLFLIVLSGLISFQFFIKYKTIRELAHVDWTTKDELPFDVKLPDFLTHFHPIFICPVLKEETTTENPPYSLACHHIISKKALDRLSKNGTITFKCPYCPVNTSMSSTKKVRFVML
GID^SR4, sequence (P40492 whole entry, chain 6 of 4): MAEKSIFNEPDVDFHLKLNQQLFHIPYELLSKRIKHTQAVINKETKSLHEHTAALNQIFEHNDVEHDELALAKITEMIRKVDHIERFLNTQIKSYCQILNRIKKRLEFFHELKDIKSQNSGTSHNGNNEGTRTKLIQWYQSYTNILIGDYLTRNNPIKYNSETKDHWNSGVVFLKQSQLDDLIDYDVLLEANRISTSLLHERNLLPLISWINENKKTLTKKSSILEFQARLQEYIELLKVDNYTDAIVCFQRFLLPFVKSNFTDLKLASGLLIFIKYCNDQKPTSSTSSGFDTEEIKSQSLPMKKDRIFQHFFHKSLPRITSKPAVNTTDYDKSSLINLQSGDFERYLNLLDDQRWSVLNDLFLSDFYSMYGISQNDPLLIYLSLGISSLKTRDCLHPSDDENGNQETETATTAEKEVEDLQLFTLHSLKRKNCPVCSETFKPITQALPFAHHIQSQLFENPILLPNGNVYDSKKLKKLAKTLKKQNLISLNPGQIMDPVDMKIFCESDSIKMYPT

[4] = target: T1, Gid1

B1: binds [1].

With B2 the stoichiometry N [2] was 2, the binding result [3] was “binds” and the binding result [4] was “binds”.
